Test results reported in patent US20230348629A1.

Target: human TIGIT on HEK293A/human TIGIT cells (human) (UniProt Q495A1)
Test: cell-based or functional assay

human TIGIT on HEK293A/human TIGIT cells (human), sequence (Q495A1 22-244 limits assumed): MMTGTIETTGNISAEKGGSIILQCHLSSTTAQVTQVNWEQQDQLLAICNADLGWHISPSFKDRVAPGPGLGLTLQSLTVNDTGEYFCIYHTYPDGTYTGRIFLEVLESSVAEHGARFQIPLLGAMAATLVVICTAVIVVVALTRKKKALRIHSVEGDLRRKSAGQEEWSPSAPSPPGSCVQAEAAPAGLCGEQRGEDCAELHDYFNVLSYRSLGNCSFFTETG

Tiragolumab (antibody) showed an EC50, NK92 (NK92MI-CD16a) cell-mediated ADCC, LDH release of 511 pM and an EC50, PBMC-mediated ADCC, death rate of GFP+ cells by FACS of 311 pM.
